16 variants from the supplement of paper PMC7125110 can be followed below.

B1: glmS ribozyme (parent)
chain: AUAAAAGCGCCAGAACUACAGAAAUGUAGUUGACGAGGAGGAGGUUUAUCGAAUUUUCGGCGGAUGCCUCCAAA

± gives the standard error. For some of these results: Variants at the floor of the assay were thinned out.

Holding throughout (conditions): with glucosamine-6-phosphate
The variants in data set [1] derive from B1. Briefly: kcat; higher = faster cleavage; RNA array. In short, it runs like this:
(§1)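 Sequenced MiSeq chips were the platform: E. coli RNA polymerase transcribed barcoded ribozyme variants on them in situ, and a hybridised Cy3 probe tracked these at 37 °C. After glucosamine-6-phosphate (40 μM to 10 mM) in HEPES/KCl/Mg(OAc)2 buffer was flowed in, tiles were imaged over ~14 h. Signals normalised to baseline and to non-cleaving reference variants were reduced to per-tile medians and fit to one- or two-exponential decays to obtain kobs. kcat and KM were derived through weighted Michaelis–Menten fits across concentrations.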

In data set [2] the parent is B1. The experiment in a line: self-cleavage kobs at 40 uM GlcN6P; higher = faster cleavage; RNA array. In short, it runs like this: as §1
In data set [3] the parent is B1. Briefly: self-cleavage kobs at 160 uM GlcN6P; higher = faster cleavage; RNA array. In outline:
as §1

Variants of B1 are the subject of data set [4]. The experiment in a line: self-cleavage kobs at 640 uM GlcN6P; higher = faster cleavage; RNA array. In short, it runs like this:
as §1

In data set [5] the parent is B1. Briefly: self-cleavage kobs at 2500 uM GlcN6P; higher = faster cleavage; RNA array. In outline: as §1
The variants in data set [6] derive from B1. Briefly: self-cleavage kobs at 10000 uM GlcN6P; higher = faster cleavage; RNA array. In short, it runs like this: as §1
The variants in data set [7] derive from B1. Briefly: KM; higher = weaker cofactor use; RNA array. In outline:
as §1

For the variant A15G G60U, in data set [1], the kcat is < 1e-05 s⁻¹. The “self-cleavage kobs at 40 uM GlcN6P” value in data set [2] is < 1e-05 s⁻¹. Also, the “self-cleavage kobs at 160 uM GlcN6P” value in data set [3] was < 1e-05 s⁻¹. For the same variant, the “self-cleavage kobs at 640 uM GlcN6P” value in data set [4] was < 1e-05 s⁻¹.
A52G U65G: in data set [1], the turnover number (kcat) is 0.000271 ± 0.00011 s⁻¹. The “self-cleavage kobs at 640 uM GlcN6P” value in data set [4] came to 5.52e-05 ± 9.3e-06 s⁻¹. For the same variant, the “self-cleavage kobs at 2500 uM GlcN6P” value in data set [5] turned out to be 8.89e-05 ± 9.9e-06 s⁻¹. Also, the “self-cleavage kobs at 10000 uM GlcN6P” value in data set [6] is 0.00022 ± 3e-05 s⁻¹.
For G40A G43C U47C C50G U65C, in data set [1], the kcat stood at 2.52e-05 ± 1.1e-05 s⁻¹.
With G29A C50A, in data set [1], the kcat worked out at 1.1e-05 ± 3.2e-06 s⁻¹.
In the case of A6G, the kcat in data set [1] came to 0.00068 ± 9.8e-05 s⁻¹. The KM in data set [7] is 2660 ± 490 µM. In addition, in data set [2], the “self-cleavage kobs at 40 uM GlcN6P” value is < 1e-05 s⁻¹. Also, the “self-cleavage kobs at 160 uM GlcN6P” value in data set [3] is 4.17e-05 ± 1.6e-06 s⁻¹. Besides, the “self-cleavage kobs at 640 uM GlcN6P” value in data set [4] came out at 0.00013 ± 2.3e-06 s⁻¹. For the same variant, in data set [5], the “self-cleavage kobs at 2500 uM GlcN6P” value was found to be 0.000467 ± 4.5e-05 s⁻¹. Also, the “self-cleavage kobs at 10000 uM GlcN6P” value in data set [6] came out at 0.000533 ± 2.4e-05 s⁻¹.
U55A A64G: the kcat in data set [1] is 0.0275 ± 0.012 s⁻¹. Further, the “self-cleavage kobs at 40 uM GlcN6P” value in data set [2] amounted to 0.000991 ± 0.00014 s⁻¹. The “self-cleavage kobs at 160 uM GlcN6P” value in data set [3] stood at 0.00181 ± 0.00043 s⁻¹. In data set [4], the “self-cleavage kobs at 640 uM GlcN6P” value worked out at 0.0094 ± 0.0023 s⁻¹. Moreover, the “self-cleavage kobs at 2500 uM GlcN6P” value in data set [5] worked out at 0.0275 ± 0.0092 s⁻¹. Further, the “self-cleavage kobs at 10000 uM GlcN6P” value in data set [6] was 0.0227 ± 0.0054 s⁻¹.
Turning to C16U A53U G66A C67U, in data set [1], the kcat came to 0.00153 ± 0.0004 s⁻¹. Also, the KM in data set [7] worked out at 755 ± 320 µM. Further, in data set [2], the “self-cleavage kobs at 40 uM GlcN6P” value worked out at 8.2e-05 ± 1.8e-05 s⁻¹. Besides, the “self-cleavage kobs at 640 uM GlcN6P” value in data set [4] worked out at 0.000671 ± 0.00013 s⁻¹. Moreover, the “self-cleavage kobs at 2500 uM GlcN6P” value in data set [5] is 0.000968 ± 0.00031 s⁻¹. Moreover, the “self-cleavage kobs at 10000 uM GlcN6P” value in data set [6] was found to be 0.00215 ± 0.00061 s⁻¹.
For A14U C68A, the kcat in data set [1] turned out to be 2.98e-05 ± 1e-05 s⁻¹. Besides, in data set [5], the “self-cleavage kobs at 2500 uM GlcN6P” value came out at 3.98e-05 ± 1.4e-05 s⁻¹.
On to A52U C67G, for which the catalytic constant (kcat) in data set [1] came to 0.000281 ± 3.9e-05 s⁻¹. Also, the KM in data set [7] was found to be 2620 ± 740 µM. The “self-cleavage kobs at 640 uM GlcN6P” value in data set [4] stood at 6.34e-05 ± 7.8e-06 s⁻¹. Besides, in data set [5], the “self-cleavage kobs at 2500 uM GlcN6P” value was determined as 0.000118 ± 1.4e-05 s⁻¹. The “self-cleavage kobs at 10000 uM GlcN6P” value in data set [6] is 0.000235 ± 2e-05 s⁻¹.
Consider G29A G37C, for which the kcat in data set [1] was 1.28e-05 ± 1.4e-06 s⁻¹.
For C58G A64G, in data set [1], the kcat worked out at 0.000129 ± 2.7e-05 s⁻¹. In addition, the “self-cleavage kobs at 640 uM GlcN6P” value in data set [4] came to 6.72e-05 ± 2.7e-05 s⁻¹. Moreover, in data set [5], the “self-cleavage kobs at 2500 uM GlcN6P” value turned out to be 6.74e-05 ± 1.2e-05 s⁻¹. The “self-cleavage kobs at 10000 uM GlcN6P” value in data set [6] came out at 0.000115 ± 1.7e-05 s⁻¹.
U47C C71A: the catalytic constant (kcat) in data set [1] was 0.00134 ± 0.00043 s⁻¹. Moreover, in data set [2], the “self-cleavage kobs at 40 uM GlcN6P” value amounted to 4.8e-05 ± 2e-05 s⁻¹. Besides, in data set [3], the “self-cleavage kobs at 160 uM GlcN6P” value worked out at 4.4e-05 ± 1.9e-05 s⁻¹. Further, in data set [4], the “self-cleavage kobs at 640 uM GlcN6P” value was determined as 0.000204 ± 4.2e-05 s⁻¹. The “self-cleavage kobs at 2500 uM GlcN6P” value in data set [5] came out at 0.000441 ± 0.00011 s⁻¹. In addition, the “self-cleavage kobs at 10000 uM GlcN6P” value in data set [6] worked out at 0.00101 ± 0.00017 s⁻¹.
In the case of C16A U55C, the catalytic constant (kcat) in data set [1] came out at 0.00122 ± 0.00014 s⁻¹. For the same variant, the KM in data set [7] was determined as 2120 ± 400 µM. The “self-cleavage kobs at 40 uM GlcN6P” value in data set [2] turned out to be 1.93e-05 ± 8.5e-06 s⁻¹. Moreover, the “self-cleavage kobs at 160 uM GlcN6P” value in data set [3] is 7.75e-05 ± 1.1e-05 s⁻¹. The “self-cleavage kobs at 640 uM GlcN6P” value in data set [4] turned out to be 0.00033 ± 4.4e-05 s⁻¹. For the same variant, the “self-cleavage kobs at 2500 uM GlcN6P” value in data set [5] stood at 0.000717 ± 8e-05 s⁻¹. Moreover, the “self-cleavage kobs at 10000 uM GlcN6P” value in data set [6] came out at 0.000949 ± 0.00011 s⁻¹.
C11A A14G: the kcat in data set [1] was 0.000935 ± 5.4e-05 s⁻¹. In data set [7], the KM came out at 1790 ± 200 µM. In addition, the “self-cleavage kobs at 40 uM GlcN6P” value in data set [2] amounted to 1.65e-05 ± 7.4e-06 s⁻¹. The “self-cleavage kobs at 160 uM GlcN6P” value in data set [3] is 7.64e-05 ± 2e-05 s⁻¹. Moreover, in data set [4], the “self-cleavage kobs at 640 uM GlcN6P” value turned out to be 0.000261 ± 3.2e-05 s⁻¹. Also, the “self-cleavage kobs at 2500 uM GlcN6P” value in data set [5] was determined as 0.00051 ± 7.7e-05 s⁻¹. Also, the “self-cleavage kobs at 10000 uM GlcN6P” value in data set [6] turned out to be 0.000802 ± 7.8e-05 s⁻¹.
Take C11U C67U: in data set [1], the kcat was found to be 0.000394 ± 2.4e-05 s⁻¹. In data set [7], the KM came to 925 ± 130 µM. For the same variant, in data set [3], the “self-cleavage kobs at 160 uM GlcN6P” value was determined as 5.21e-05 ± 1e-05 s⁻¹. Also, the “self-cleavage kobs at 640 uM GlcN6P” value in data set [4] worked out at 0.000171 ± 1.8e-05 s⁻¹. For the same variant, the “self-cleavage kobs at 2500 uM GlcN6P” value in data set [5] is 0.000278 ± 3e-05 s⁻¹. In addition, the “self-cleavage kobs at 10000 uM GlcN6P” value in data set [6] was 0.000364 ± 3.9e-05 s⁻¹.
Consider A12U U56C, for which the kcat in data set [1] amounted to 0.0355 ± 0.014 s⁻¹. Besides, the KM in data set [7] was 2940 ± 1400 µM. The “self-cleavage kobs at 40 uM GlcN6P” value in data set [2] was found to be 0.000487 ± 0.00011 s⁻¹. In data set [3], the “self-cleavage kobs at 160 uM GlcN6P” value was found to be 0.00159 ± 0.00028 s⁻¹. The “self-cleavage kobs at 640 uM GlcN6P” value in data set [4] was 0.00808 ± 0.0013 s⁻¹. Moreover, the “self-cleavage kobs at 10000 uM GlcN6P” value in data set [6] was determined as 0.0251 ± 0.0075 s⁻¹.
